According to patent publication US20230374526A1, “FORSKOLIN-INDUCIBLE PROMOTERS AND HYPOXIA-INDUCIBLE PROMOTERS” (ASKLEPIOS BIOPHARMACEUTICAL, INC., priority 2020, published 2023):

Experiments:
[1] = tested on: CHO-GSK1SV cell line; assay: SEAP expression from hypoxia-inducible promoter in stably integrated cell line, normoxia vs 24 h hypoxia; format: cell-based, chinese hamster; details: normalised to cell number
Experimental: Cell suspensions of 6×10^5 cells per mL are incubated on an orbital shaker set at 8% CO2, 20% O2, 37° C., 85% relative humidity and 140 rpm overnight. 2.86×10^7 cells were centrifuged at 200 g for 3 minutes. Media is then aspirated and cell pellet resuspended in 2 mL fresh CD-CHO media to obtain a concentration of 1.43×10^7 cells per mL. 700 μL of cell suspension was added to each of two electroporation cuvettes each containing […] of linearised DNA in 100 μL of sterile TE buffer (Thermofisher, 12090015). Each cuvette was electroporated, delivering a single pulse of 300V, […] with resistance to infinity. Immediately after delivery of pulse electroplated cells were transferred to Erlenmeyer 125 mL flask containing 20 mL of CD-CHO media pre-warmed to 37° C. […] Cells are transferred to fresh CD-CHO media 24 hours after transfection and cell cultures monitored and given fresh CD-CHO media every 2-4 days. […]
Stably transfected CHO-GS cells were seeded at 500,000 cells/ml and allowed to grow for 24 hrs, at this point the cells were counted and placed under hypoxic conditions as previously described. After 24 hrs, the cell numbers and the expression of SEAP was measured.
SEAP Reporter Gene Assay, chemiluminescent (Roche, CAT #11 779 842 001) was used to measured SEAP activity as per manufacturers protocol. […] The signal is then read at 477 nm and compared to a calibration curve. […]

[2] = tested on: HEK293-T cells; assay: Luciferase expression from hypoxia-inducible promoter, normoxia vs 24 h hypoxia; format: cell-based, human
Experimental: HEK293-T are seeded at a density of 20%. Once they reached a confluence between 60 and 80%, the media is changed with DMEM (#21885-025—Thermo Scientific) supplemented with 10% FBS (Gibco, 26140). After 3 hours, the cells were transfected by a transfection mix. The transfection mix is prepared by adding DNA (2 μg per 6 well plate) and PEI 25 kDA (#23966-1—Polyscience) in a ratio of 1:3 in sterile DPBS (#14190169—ThermoFisher Scientific). After mixing, the transfection mix is incubated at room temperature for 30 minutes and then added directly to the cells. After 16 to 18 h post transfection, the media is changed to DMEM+2% FBS. […]
After transfection the cells were incubated for 24 hrs in normoxic conditions (20% oxygen). Induction of the promoters was assessed by using luciferase activity after 24 hrs in normoxia or hypoxia (5% oxygen, 10% carbon dioxide and 85% nitrogen). […]
Luciferase activity was measured using LARII (Dual Luciferase Reporter 1000 assay system, Promega, E1980).
Media was removed from the cells at the respective time point (0, 3, 5, 24 hrs after induction). […] 10 μl of supernatant was pipetted into white 96-well plate and luminescence measured by addition of 50 μl of LARII substrate.
β-galactosidase activity was measured as per manufacturer's instructions (Mammalian βGalactosidase Assay Kit, 75707/75710, Thermo Scientific) using 25 μl of lysate. […]

[3] = tested on: CHO-GS cells; assay: Luciferase expression from hypoxia-inducible promoter, transient transfection, normoxia vs 24 h hypoxia; format: cell-based, chinese hamster; details: CHO_GS suspension cell line
Experimental: 40 ml of cells were grown in a 250 ml vented Erlenmeyer flask (Sigma-Aldrich CLS431144) at 37° C., 20% O2, 8% CO2 with agitation at 100 rpm. Cells were seeded as at 300,000 cells/ml.
One day before transfection, the cells were counted using a haemocytometer and split to 500,000 cells/ml.
On the day of transfection, the cells are seeded to 1,000,000 cells/ml in 500 μl of appropriate medium (Thermofisher, CD-CHO 10743029) in a 24 well plate. 0.625 μg of DNA per well was then added to 10 μl of OptiMem medium (Thermofisher; 11058021) and incubated for 5 minutes at room temperature.
Concurrently, 0.625 μl of Freestyle Max reagent (Thermofisher, 16447100) was made up to 10 μl by addition of OptiMem and incubated for 5 minutes at room temperature. After this incubation, both mixes were added to the same tube and incubated at room temperature for 25-30 minutes. The DNA/Max reagent mix (20 μl/well) was then added directly to the cells and the cells incubated at 37 C, 8% CO2 with agitation at 100 rpm. […]
After transfection the cells were incubated for 24 hrs in normoxic conditions (20% oxygen). Induction of the promoters was assessed by using luciferase activity after 24 hrs in normoxia or hypoxia (5% oxygen, 10% carbon dioxide and 85% nitrogen). […] Luciferase activity was measured as described above.

B1: RTV-015: hypoxia-inducible promoter, SEQ ID NO: 129; 5 HRE1 elements spaced by 40 bp spacers, synthetic minimal promoter MP1 (nucleic acid)
DNA: ACGTGCGATGATGCGTAGCTAGTAGTGATGATGCGTAGCTAGTAGTACGTGCGATGATGCGTAGCTAGTAGTGATGATGCGTAGCTAGTAGTACGTGCGATGATGCGTAGCTAGTAGTGATGATGCGTAGCTAGTAGTACGTGCGATGATGCGTAGCTAGTAGTGATGATGCGTAGCTAGTAGTACGTGCTTGGTACCATCCGGGCCGGCCGCTTAAGCGACGCCTATAAAAAATAGGTTGCATGCTAGGCCTAGCGCTGCCAGTCCATCTTCGCTAGCCTGTGCTGCGTCAGTCCAGCGCTGCGCTGCGTAACGGCCGCC
modifications: Synp-RTV-015
notes: 5 HRE1 elements spaced by 40 bp spacers, synthetic minimal promoter MP1
SEAP activity in normoxia [1]: almost no SEAP activity
SEAP expression after 24 hours in hypoxia (vs normoxia) [1]: induced
Luciferase expression after 24 hours in hypoxia (vs normoxia) ([2]; 5% oxygen): induced
Luciferase activity in normoxia ([2]; 20% oxygen): almost no luciferase activity
Luciferase expression after 24 hours in hypoxia (vs normoxia) ([3]; 5% oxygen): induced
Luciferase activity in normoxia ([3]; 20% oxygen): almost no luciferase activity
